Reference: a protein production outcome set (Wang et al. 2014)

test: label from the status in PepcDB records

Question: For “MRNNLSAYSNIETGEAATELECFPYSVQHNDEGVCLLVRMGPHRILLDCGLADISSIQKSLTPSVKRGNPPSPADLVLVTHAHPDHARGLLALHQAFPNLPIYGSEVTSKLLPLNWLDHNPQEIPQLCHALPLRSPVELQDGLVAEIFPCGHLPGAVAILLTYTTEQRSYKLLYTGDFFLSNSRLVEGLRLEELRGIDLNVLIIEGTYGTSRHPHRRNQENQLAERINRAISDRYSVVLPTPALGLGQELLMLLRSHHHFTGRDLDIWVDGAVAIGCDAYLELLPHLPASVQNFARHQPLFWDERVRPRVRRLQAENRSIVGKSPCIVLTDSTSDLEQYCQPETGPWLILLPEKIDIKVNKKYSAPTTVESYLLAQHSDGPGTTQLIHNLRPQHVVFVHGSPAYLADLTCLEELQNRYHIHSPAAETMVELLIGETFLQPAPPETNYEGELTELGTVITISIPEAITADPRWRQFADTGLIEARWQGEELVLRGLTQRELLNQNSDRNIPPEIDCCGTCRHQRGQRCWNPSSPLYNFRVTLEGHCPAFERLSNGE”, which protein production is on record?
Answer: The protein production was “failed”.

Question: For “MRNPNDVFHLAIPARDLDEAYDFYVTKLGCKLARRYPDRITLDFFGDQLVCHLSDRWDREVSMYPRHFGITFRDKKHFDNLYKLAKQRGIPFYHDLSRRFEGLIEEHETFFLIDPSNNLLEFKYYFDDRMMY”, which protein production is on record?
Answer: The protein production was “not failed”.

Question: For “MRPAHICLAVLVAAVWGVNFTVIEVGLAHFPPLLFSALRFLAAALPAVFFVGRPKVAWKWIVAVGLVLGVAKFGLLFIGMDAGMPAGLSSLVLQIQAVFTALIAFAALGERPTGIRLAGMAVALCGVGLAAVDEGTGGPLGAFALVIGAAVCWGASNVLTRKASPPDPLNFMVWVSTVPVVPLLGLSLLTEGPSADLNALGSLDWQGAGVILYVAWITTVFGFGAWGWLLHRHPASTVAPFSLLVPVFGMSSAALFLGEPIGPMRWGAAALLAGGVALTSLAPGKERSGGPNTLDLRGVGIHEAGR”, which protein production is on record?
Answer: The protein production was “failed”.

Question: Which protein production does the source give for “MRPCCHWRPGPSGCHCCAGCGLAAEARRARERRGEAVIGLCGALAGEVRAGRQPGEALLHAAGDSGGLGDAQAAVLAAARFGGDVPGALADAAGQPGAEGLLGLGACWRVAVDRGAGLAAGLDRLEAALRAERDQRAELRAQLAGARSTAVMLAALPVLGLLLGTALGADPLHVVLHTGAGLACLLAGAVLEGAGLWWALRIVRGAEAA” here?
Answer: The protein production was “failed”.

Question: With “MRPDLSRVPGVLGEIARKRASEVAPYPLPEPPSVPSFKEALLRPGLSVIAEVKRQSPSEGLIREVDPVEAALAYARGGARAVSVLTEPHRFGGSLLDLKRVREAVDLPLLRKDFVVDPFMLEEARAFGASAALLIVALLGELTGAYLEEARRLGLEALVEVHTERELEIALEAGAEVLGINNRDLATLHINLETAPRLGRLARKRGFGGVLVAESGYSRKEELKALEGLFDAVLIGTSLMRAPDLEAALRELVG” as the sequence, how does the protein production read?
Answer: The protein production was “not failed”.

Question: With “MRPETLAVIQKQLTKIKAAQRNMTDNEVLRSMDEIMFCFENCYTEDETFTHIAQMFPSYVLKIVKSFFQISKAVTDEESREAYLTDAEECASVRRSQARDTSEEAKRSQDTLMGRLILIFMRPETREIIEMQLLPAMKLVKERLEREVEKQSMDEFMFCFENCYTEKETEMHVTRKFPSLKQSDVGIGFQTFIGLIDKESSREAYLKDAEDCANVRRIEARQGEASTSHKCEPNCNKH” as the sequence, how does the protein production read?
Answer: The protein production was “failed”.

Question: With “MRPLARLRGRRVVPQRSAGELDAMAAAGAVVAAALRAIRAAAAPGTSSLSLDEIAESVIRESGATPSFLGYHGYPASICASINDRVVHGIPSTAEVLAPGDLVSIDCGAVLDGWHGDAAITFGVGALSDADEALSEATRESLQAGIAAMVVGNRLTDVAHAIETGTRAAELRYGRSFGIVAGYGGHGIGRQMHMDPFLPNEGAPGRGPLLAAGSVLAIEPMLTLGTTKTVVLDDKWTVTTADGSRAAHWEHTVAVTDDGPRILTLG” as the sequence, how does the protein production read?
Answer: Its protein production is “failed”.

Question: With “MRPVDEQWIEILRIQALCARYCLTIDTQDGEGWAGCFTEDGAFEFDGWVIRGRPALREYADAHARVVRGRHLTTDLLYEVDGDVATGRSASVVTLATAAGYKILGSGEYQDRLIKQDGQWRIAYRRLRNDRLVSDPSVAVNVADADVAAVVGHLLAAARRLGTQMSDT” as the sequence, how does the protein production read?
Answer: The protein production was “not failed”.

Question: Which protein production does the source give for “MRQPFQVLVIPFIKTEANYQFGVLHRTDADVWQFVAGGGEDEEAISETAKRESIEELNLDVDVKMYSLDSHASIPNFHFSFNKPYVVPEYCFAIDLTSCSYQVTLSLEHSELRWVSYESAIQLLEWDSNKTALYELNERLKNNDMKAM” here?
Answer: The protein production was “not failed”.

Question: Which protein production does the source give for “MRQRDDSKRIAFLEATVREVADHGFSATSVGKIAKAAGLSPATLYIYYEDKEQLLLATFYYVSDQVIDAALDSFSRGKDLREGLRRQWHTLFRIGLERPELFRYHETFTHSAWMTPEIQARNESRAANLLNAVDQGKQSGLIKPVPFPLLETFMFRPIYHLVQRCLQGSFEGTDEHIELAFNMAWDAVADRRNT” here?
Answer: Its protein production is “not failed”.

Question: Which protein production does the source give for “MRQSYRTPLLASLLVLICAVVLWNAYEWFQGRYLRAFSEHTAMFSGDPLQLPAELAGPGAIRLVHFWDPACPCNVGNQQHLAELIEAYSPRGVEFYAVQKPGSHGQLPATLSRLKHLDSLPGAEQIPASPAVAIWDRNGKLAYFGPYSEGLTCNSSNSFIEPILQALEDNRPVSATHTLAIGCYCPWPA” here?
Answer: Its protein production is “failed”.

Question: With “MRQTQVKSPYCHQSNYKLAIAIITVITGTVVTGATVTTGTAIMNGVKTAGGIMIMATIVAGISVKRMNVAIVKAGAIVTIIVEKAADMDTAIKHIRQWSTMPDATLARLIRPTNQLFNA” as the sequence, how does the protein production read?
Answer: The protein production was “failed”.

Question: With “MRQYNPPAMNIPQEVARRRTFAIISHPDAGKTTLTEKLLLFAGAIQIAGSVKARKASRHASSDWMEIEKQRGISVASSVMQMEYRDCVINLLDTPGHQDFSEDTYRVLTAVDAALMVIDAANGVEPQTIRLLQVCRARNTPIITFINKLDREVREPLELLSEIEGHLGMDTVPFSWPVGMGKAFGGVFDIRRNRMRIFRAGQERRGEDDEFIDGLDNPEIPRRFGAAFAQASGEIELINEAAPAFDREAFLAGKQTPVFFGSAINNFGVQEVLDALVDQAPAPGPRQALEREVRPDEPKFTGVVFKVQANMDPAHRDRVAFVRVSSGRFERGMRLKVARTGKEMRPNNVVSFLSQRRELLDEAYAGDVIGIPNHGVLQLGDVLTEGESLRFTGLPFFAPELFQAVEVKDPLRTKQLRVGLTQLGEEGAIQVFRPEAAGGALLLGAVGQLQFEVVAHRLKTEYGVDARMMPSRYTSARWITSDDPRALRKFMDANAAHIAYDVVDAAAFLITSPAQLRVAEDLYPNVKFHALREHGGKVFGDKA” as the sequence, how does the protein production read?
Answer: The protein production was “failed”.

Question: Which protein production does the source give for “MRRCCGDLAASRGGCEPASRNLTRTRLTFAALGRINRPAEHDREDAMTRQEARDHEPRDQDAALSRRTLVRGLALGAAATMAGPALAQTGPAAPPTTITTPPRDFGPNGAPTTYFWDPDIIAVDPSFDDLAQPNTAIKRLYTGVLWAEGPAWSAQGRYLLWSDIPNNRQMRWSEDDGRISVFRSPSNNSNGNSFDFQGRQLSCEHLTRRVTRYEHDGTATVLCDNYNGKKLNSPNDVVAHPDGSYWFTDPPYGGQLYEGEPDAAGGPSNSGGKLNPRIGQPAGFTPGKRELPTNCYRIDPSGRVDLVVTEEQVPDPNGLCFSPDFKKLYVVSTGKGPGDSGPGGKGEIFVFDVGADNKLSNQKRFSDCTIDGVKCGPDGVRCDVNGNVWASSNAGRAVGYSGVTVWSPEGKLLGRIRLPEVCGNICFGGPKRNRLFMAASQSLYAVFTATQGAGPGLEHHHHHH” here?
Answer: Its protein production is “not failed”.

Question: With “MRRGDIGSCDRVDPSGKTLAGCDAGGDRGLGHGAFSSRAMWASDRTAARLLRPTLRQINTRLAGPPDPSISASMERAADMQTLLREIRNTPLLWMLVFVPIVLLAEAAAPHSHTLLFVLAVLAIVPLAALLSHATEAVAAKTGDAVGGLLNATLGNLTELIIAITALRAGQYMLVKASIAGAIVTNAVFMLGACLLLGGLRYHVQEYNRAGARLSSGLLLMATVALLAPSAVADLEHLPQGGGILNKLSVGISVLLIIAYALGLLFSLGTHKELFASADHGDDKEAHWPIGIAVGTLLVVTVLVALVSEIFVESVQKAAETFGMSPAFVGFIIVSLVGAAAEFAVAFGAARKDRLDMVVSIALGSASQIALFVAPALVLLSYVVGPTPMNLQFWPGAVTMVMIATVTSAFITASGRSAWFVGALMIFIYAVFALTLYVVPPAGEG” as the sequence, how does the protein production read?
Answer: Its protein production is “failed”.

Question: For “MRRITVGPFNRVEGDLEVRLDIDDGVVVSAEVTAPLYRGFEQILEGRPSLDALTLAPRICGICSVSQSMAAVAALRAVDGLHPAPNGLHAANIAHAAENAADHLTHFYVFFMPDFARDSYAAWPWHPAVAERFTATRGTAAREVLPARARLLEIMGLIAGKWPHSLAFQPGGTTRAIGLGERVRLLSIIADFRGFLESIVFGDDLEAVLALRSAAALESWRDGRIGDFARFLAIADDLALDKLGRGATSLMSFGAYQGLEAPLFAAGLYDPATSTPRVLDIDAITEDVSHAWMRDTAAEPALAQTLPDADRPGGYSWCKAPRLDSRPIEVGALARQAVDGDALIRDLVRRHGPNVRTRVIARLLETARLALAMDRWARQIALDAPFLDAAARVGEGAGIGLVEAARGSLGHWIELSGDRIRRYQIIAPTTWNFSPRDADGVAGPLEQALVGTPVGAEGAASVAVQHVVRSFDPCMVCTAH”, which protein production is on record?
Answer: The protein production was “failed”.

Question: For “MRRLFPEESEALLFKTLNYIPIPILLSEALAVEGRRPSTHRIHRFMNHAFVEQLGYNLSEIPNIAAWFDTVYPDPIIREQAMLEWDSVVYESEQQGLSTAGFKTFIRCGTGQFRWFLINAQLTTENQSNLNIVTMRDVHQLQLLLEENERQSKTDLLTGLANRRQIEDVLAAAMAKSDRTQSSLCVVMCDIDFFKNINDNFGHLCGDDVLKIVASQLQHSAQAATCIARWGGEEFLIVLEHVVPESAGVLCEQLRGLIAATDYQSYGQHMQLTMSFGCVQYQANESLQSLLCRVDKALYQAKNGGRNQVVMD”, which protein production is on record?
Answer: The protein production was “failed”.

Question: Which protein production does the source give for “MRRLNLILLLSAVTAALAFVISCKETNAERLEKMCGEWVSTGGKPPFTLWEEDGRYRVTVMHRNHTGGSEAETYLVRETEGVLFIETGFAVMMDYDREKDRIRLSPGGEYRRKSDGTLKQ” here?
Answer: The protein production was “failed”.

Question: With “MRRLNRFKAPDEKVNTLFQVYKTISFWKVVKNTVVVEFGRFFPWMGGKRNIYRACLGMKIGKKTAIAYKVMPDLFFPEKITIGENSIIGYHTTILTHEYLLSEYHVGEVVIGKNVMVGANVTILPGIEIGDGAIVAAGAVVSKDVPPESFAYGNPLVIKEKAALEHHHHHH” as the sequence, how does the protein production read?
Answer: The protein production was “not failed”.

Question: With “MRRPPVVGVLLAAGRGSRFDPDGTVNKLLAALPDGTPVAVQAARHLRAVLDDVVAVVPAAGTHGAEVERLAALLAEAGCEVLRCARAARGMGASLAAGVAARPHAGGWIIALADMPWLAPHTIARVAQALDARHCVAPFHQGRRGHPIGFGADYFAGLAALDGDEGARALIDPARLIRLDVGDAGTLRDVDTPADVCGA” as the sequence, how does the protein production read?
Answer: The protein production was “failed”.

Question: For “MRRRGKGGGSVFYHEGKGKWVAQLTWIDPATGRKVKREKHCETRKEAERALADMVVAQAKGLLTDPSRLTTRDFALDYLKRLEREGLRPNSIRLAQEELAHALPSLKDPKAHDPLGRMRLQEVKPVHVRAAVDRVAEAGYAPRTVGRVLMRLKALFREALRLELVARNPAEAVRLRLPKGEKTARALEPQEVARLLETAEASRSKDMALLLRLMLETGLRRGEALALQWRDIDLEAGELTVWRSWTKARGKGAFSEPKTPTAKRKVPLPRGLLLRLKARREELLERLTPEEVDGLFLVGGVKPVDPDAFNHYLRRLAERAGLGRVRVHDLRHTWATLALSRGVPLEVVSERLGHASPTITLNVYRHLLEEERRGWVLDLEELLYPAPRAQA”, which protein production is on record?
Answer: The protein production was “failed”.

Question: Which protein production does the source give for “MRRSLRHGFTALLTTWALLLPTVAVAQEPIDNVPEVTADNAETLEDIIDDALTPTTRLEAPNTDLCPYKESPSPARSTSEVVAPGAQTPALVPVPSVPAGGEKLATCGVITPNGFELPEDSDETITASAWMVFDIDSGEIIAAKDPHGRYRPASIIKVLLSLVAIDELNPTTVVTGTMEAANIEGSRVGVGEGGQYTVDQLLHGLLLASGNDAAYLLAQELGGDQATLEKVNALAKELGTQDTFVATYSGLDAPGMSTSAYDMSLIYQHAWQNPVFESIISTDHIDFPGWGDNEGFQVWNDNALFMNDPDGIGGKTGYTDDANHTFVGGLDRGGRRLAAVLLDSTVSDIRPWEQARLLIDASLPITPGSGVGQLGSGSANDVAPATPELPEPTDNLTSGEGGSQNTLLKLVVPIGIIVLLLIAALAWTFRSPKKKN” here?
Answer: Its protein production is “failed”.
